assay: soluble on expression in E. coli; label from the status in PepcDB or PDB records

**Q.** For “MGSDKIHHHHHHMTSPVENVKKKPRPLALSPSRAGDYQQCPLLYRFRAIDRLPEPKTVAQVKGTLVHAVLEYMHKLPREEREYPAMVKQLKPTWAQMCEEDAELKELVPEDELYDFLVDSRTLLRGYFEMENPQGFDATECEMYVDTVLPNGVPVRGFIDRVDTAPTGQVRVIDYKTGKKPKPQWSQQAQFQMLFYALVYWRMFNEIPAQLRLMYLKVNDSMFLNPSREQLEFFERDLGDLWAKIEMDGKAGHFRTKTSKLCGWCPHQSLCPEYGGVPPEYPGWPGSTAD”, which “soluble on expression in E. coli” value is on record?
**A.** not soluble

**Q.** With “MGSDKIHHHHHHMTSQDTADTGMADMDMTDTGMFLAKADIFASLTPEEDRAWSQLCTVESVSGGTIVLDYGIRPEIVLVVLSGALRATLRVSAGKELFLDMIGPGGTMAEMDAIRAEGYNLCLMATTDATLVRMPVDVFNDIIAQKHTVCLSLLSVLVQRMHVLHARICEFSYLDVRHRLYTTLLRLSKPSEDKPQQRTISPVIIHAALAEHVGARRETVSREMSRLVQDGVIERNRNAIVIRQPHELLRRLSQFDFA” as the sequence, how does the “soluble on expression in E. coli” value read?
**A.** not soluble

**Q.** With “MGSDKIHHHHHHMTSSAPLIDFAHDLRYEDIPVHVRSIVREQIIATVGSILGGAQLPVAKSFEQSILATFGRGESSAFGAGTGMSAASAALYNSGLAQLLDWEDWVLISHVGAAVVPVAWALAEERGLRLNDVIVAVTIGNEIAGRTSRAIQRGAYLGNGLPNHQIELPLVAGRLLGLDRRQLGYALGHSCYMAMENCPVGWTTDSKLLVNGLPAMWAIASANMARQDIVGRGDIVEHPAGYLATVSESIDFKELTRDIGVKWYTETLSTKKHAGCAYNLPAAECAMSIREEIAPEDVERIVVECSTATLYVGGRYDDFEPGVLDAYEQGLLTHVGLCFDTKFCVAAAYVHGDLIHEQYLVENATDARVKALYGKISLVPSERLQKAQFQDFKYGATVTVHGRDGRTATRTVEQMLGGYDRPFDHATKLADGARGLLPPEAVDGIVARLRDETGNPLASEISTLINGAP” as the sequence, how does the “soluble on expression in E. coli” value read?
**A.** not soluble

**Q.** With “MGSDKIHHHHHHMTTAADLSVFEQLDLPDTSLTRDTFAFAAQATPAFIHDHCVRSYVFARAHAQNQGLRAGTDYDDELLFVSCVLHDLGLSEEGSNGDQRFEVDGADIAAAFLRERGVEEERIAVAWDAIALHTSEGIASRKGTEVALAHLGIATDILGIQRESLPAGLADEVHALLPRQDLAHGFSDLIITQAVAKPHKASPTNFIGDLLRRHLPYGAYPNWYDLIDAAGWGDKPVGVTARRRAETPQQVGTLFMEYLEAGDVEGLVSLYEPNAHFVPTPGTHLVGTDAIREAMRQMVDSGARLKLEQREIRQVDDIALVSNNAILTGIGPEPVVSTTTEILRRQPDGGWVHAVDDPFFS” as the sequence, how does the “soluble on expression in E. coli” value read?
**A.** not soluble

**Q.** With “MGSDKIHHHHHHMTTATHPNDALFAGEKSFPVLAACEHFAGSEKLIGKAMDLQVEYGPVFDVTCDCEDGAAAGQEREHAEMVARMIASDRNVHGRAGARIHDPSHPAWRQDVDIIVNGAGGRLAYITVPKATNSGQVAEVIRYIGDVAKRAGLDKPVPVHVLIETHGALRDVFQIAELPNIEVLDFGLMDFVSGHHGAIPAAAMRSPGQFEHALLVRAKADMVAAALANGIVPAHNVCLNLKDAEVIASDACRARNEFGFLRMWSIYPAQIQPIVNAMRPDFTEVEDAAGILVAAQDADWGPIQYKGELHDRATYRYFWEVLQKAKVTGMAVPAEAERRFFVN” as the sequence, how does the “soluble on expression in E. coli” value read?
**A.** not soluble

**Q.** For “MGSDKIHHHHHHMTTGKKVARRKLSLLELASELDNVSKACRIMGYSRQQFYEIRRNYQTFGAEGLVDRLPGPREPHPNRVDEATEDRILAYSLEFPTHGPVRVAQQLVLQGVQVSSGGVRGVWSRNGMLTRHERLLRLERHVRDTGIALNDDQVRTLERFSPEFRERHIETRCSGDLVAVDTFFVGTLKGVGKIYLQSAIDCHSRYAFGRLYTSKLPVTAVHMLNESVLPFFEEHDTPVVTVLSDNGREFCGRPDRHPYELFLQLENIEHRTTRVRRPQSNGFVERLHRTLLDEHFRIQGRKNWYESLDEMQADLDAYLRHYNHERAHQGRNMSGRTPYQAFLDSRPEGQPKEDNEGHYAA”, which “soluble on expression in E. coli” value is on record?
**A.** not soluble

**Q.** Which “soluble on expression in E. coli” value does the source give for “MGSDKIHHHHHHMTTKPERVVLIGVAGDSGCGKSTFLRRLIDLFGEEFMTVICLDDYHSLDRKQRKETGITALDPRANNFDLMYEQIKALKEGQTINKPIYNHETGLIDPPEIVKPNHIVVVEGLHPLYDERVRSLLDFSVYFDISDEVKIAWKIQRDMAERGHRYEDVLAAINSRKPDFQKYIEPQREFADVVLQVLPTNLIKDDTDRKVLRVRMLQREGKEGFEPAYLFDEGSTINWTPCGRKLTCSYPGMQLYYGSDVYYGRYVSVLEVDGQFDNLEEVIYIETHLSNTSTKYQGELTQLLLQHREYPGSNNGTGFFQVLTGLKMRAAYERLTAKEAKLAVQV” here?
**A.** not soluble

**Q.** Which “soluble on expression in E. coli” value does the source give for “MGSDKIHHHHHHMTTQFACSGIELELFRYPSQQASNLQAWDAADEHLVKYLIDTEITATTTAILNDNFGALTCALTMQYPHSELLVETDAKTSLLGYQQNLLHNKLASTNIHWLNSRETLPQNIQLVLMKLPKNLHYFGQQLARLSTVLPAGTQILIGAKAKSINPALLASIEKNLGPASASLAWKKTRVISCISDGKKRSLAKAVSWNVDELKLTISNLANVFAANKLDIGARIMLDNMPKGEFKHIIDLGCGNGILGLHAKQCYPNAQIHFVDDSDMAIASAKHNWQANELDTPSQDLQSQDPQTEQMPQAFFHWDDCLSNLPADVEPDLVICNPPFHQGEAITDHIAWQMFVDAHKRLKKGGLLHIVGNRHLAYHVKINRIFKNCTTVASNGKFVILQAIK” here?
**A.** not soluble

**Q.** Which “soluble on expression in E. coli” value does the source give for “MGSDKIHHHHHHMTTSITIGNFKGGVGKTTTCVTFSYLLNKAHRKTLLIDFDPQGNASEIIEKTFPVFKQKNSKSLTDGIKNLDLSESIAHVTDYLDLMPSDWSLSLLPDMLEDYKKSDRPLFLKTLLTKIRNDYDYILIDVPPTLSAYTNNAVLASDYVIMVMQTQEQSYSSSLKFVSYLQGLRKDYDKSFDLLGIIAYLVKKDGPVDHEVLKAANQAFGKALFHGNVFQRERVKRFGKSGIKDEDMWDKRALYMYQVVLDEALSRINLLEE” here?
**A.** not soluble

**Q.** Which “soluble on expression in E. coli” value does the source give for “MGSDKIHHHHHHMTTTDTRPSPSPLQQDYQRFLLLGSRRAPYTLHVHETGYRSGTINTDALGLRYSHCAGKRFSAAEHGGASRINLLVGGSTALGIGASSDEHTVASHLSMLTGEVWLSLAGCGLNATQELMMFLTHQHRLGQLGHVVVLSGLNSLAHEALCEVLAGTNDPQHAKAYQAFLNSFSEGMQPCAPPRRQSLWRRIGQALTPPVAAPPVSWPLSPPEKRLARAADNIGRTLRQWDRLLADSHATLTFILQPLLPWCRDTLPAGEQAMLTALQQQPANFDRLLEGAFDRQLHSAFFRRIKSQADPVPCYDMNCMLDSSPVFGADLFIDRLHLNDLGNNALAKVITAKLGLAQEKHAQRKVTPIKLV” here?
**A.** not soluble

**Q.** For “MGSDKIHHHHHHMTVHHHHHTHHVSLHKIKKLFSKHSSHGHKLTRDEARSALHDIEHLAKELHFQKVFDHHAHDGHISLKGFLSFISPHHGHHTHHAHGAHPGHHEVHHHHHHVKAQDSSSSSSSSSSSSSSSSSSSSSSSSSSSESEDEKHHHKKHAKKHLKKHHKKAESSSSSSSSSSSSSSSSSSSSSSESEDEKHHHKKHAKKHLKKHHKKAESSSSSSSSSSSSSSSSSSSSSSSESEDEKHHHKKHAVKKHHKKAESSSSSSSSSSSSSSSSSSEDEKHHHKKHAAKKHVKHHKKAASSSSSSSSSSSSSSSSSSSSSSESEDEKKKKKVHHKKSHGKKHHKKAASSSSSSSSSSSSSSSSSSSESEDEKKHAPAHHEHHEHKDGAHHEHKEGEHHEHAAHHDEHGVHHRHHGEHHGTHHSPAHHGEHGTHHGHHGEHHHAPAHHGHHESHGHGHHSPAHHGHHGEHHHAPAHHGHHGEHHHAPAHHGHHGEHGTHHGHHGSHHSPAHHGHHGEHHHAPAHHGHHGEHGTHHGHHGEHHHAPAHHGHHGEHGTHHGHHGSHHSPAHHGHHGEHHHAPAHHGHHGHHGSHGVHHGHHESHGHGHHAPAHHGHHGEHGVHHGHHGAGYGAHHGHHGAHHHHAPHHEHHEHHGDHHHGSHGVHHGHHGTHHSLAHHGHHGGHGTHHGAHHSPAHHGHHGAHHEHGAHHGAHHGHHDDKENHHHHGHHSKHSKKQHTKKSHKKSH”, which “soluble on expression in E. coli” value is on record?
**A.** not soluble

**Q.** Which “soluble on expression in E. coli” value does the source give for “MGSDKIHHHHHHMTVPPRVSAGEVFQHFRGTSPLTRARLSALTGLSRAATTDRMRTLASRGLIGPANEAPSTGGRPSAQFRLMPNSGAVMSVLLGASEAKVQAFDLSGQPLSAAKPVETVRGGYAAILDSCLASAYSLLDSMDDISGQLVATGVVLDEGAPDLDWPEYFAGRPVVVDSALGAMATAEALSRTPRPQNMLFLDVGKTIGCAVLVHGRTMGGFRTSKEAFGHTPGKGTPTLPCACGIMNCLQAIAGEEAIIAGLSSDLADEPDAISGAVRRSDAAAVSALRQAGRDIGDTLLGSIHLLQPEFITVRTRWPGAADFLLAGLREAIYASGVPAVTENLVLASSTTGSPATGIALRALDAGLAVESVDRLLSAPPNLSGQRNYWPAPLKSIDRQRHAS” here?
**A.** not soluble

**Q.** For “MGSDKIHHHHHHMVDIHSHIIPGIDDGSNSLETTLNMMSIAKEAGVTKMVATSHYYRGKFENSISVIEKKANELNYTLKEKGVDIDVIPGQEVFIDNYTLKDYKEGIIGTINNTDYMLVEFDMMSLGENAIDTLYELQIKGIKPIIAHPERYTYIQKDIYKINELMDENIYFQVNAGSIEGLFGKTVQKTALKLVEEGVISFIASDAHSAGKRCPGYEKALHDLTKIDKTLAEKFIKNSNLLLENEKIENKVRKLKKKKTFFSFLK”, which “soluble on expression in E. coli” value is on record?
**A.** not soluble

**Q.** For “MGSDKIHHHHHHMVEIINPFDGGGYSLAEMTQAINILPNLYTRLGQMGLFRFEGVTQRSVIIEQAEGVLNLLPTVPLGGPATVANRDARSMRSFTVPWIPHDDSITPQDVQGVRGFGVADAADPLATVMERKLTRMRTKHAQTREFMEINALRGIVRDGSGSTLYDYFAEFGLVRQQVDFALGTAATNVQAKIREVLRLVEVELKGETMTSVTALVSPAFFDKLISHPKVESAYQYFSSTGAQPLREDVRRRFPFAGMVFEEYNATVTLATGSNETLVPAGEGIAFPLGTTDTFVTYGAPANLIETVNTMGLPMYARQLARQDGSAIDVKTEASILPVNKRPRLAVRIFSGN”, which “soluble on expression in E. coli” value is on record?
**A.** not soluble

**Q.** For “MGSDKIHHHHHHMVINIEQAIAWMASRKGKVTYSMDYRNGPSSYDCSSSVYFALRSAGASDNGWAVNTEYEHDWLIKNGYVLIAENTNWNAQRGDIFIWGKRGASAGAFGHTGMFVDPDNIIHCNYGYNSITVNNHDEIWGYNGQPYVYAYRYARKQSNAKVDNQSVVSKFEKELDVNTPLSNSNMPYYEATISEDYYVESKPDVNSTDKELLVAGTRVRVYEKVKGWARIGAPQSNQWVEDAYLIDATDM”, which “soluble on expression in E. coli” value is on record?
**A.** not soluble

**Q.** For “MGSDKIHHHHHHMVKVVKFGGSSLANAAQYQKVIEILRADPERRIVVVSAPGKRFKDDVKVTDLLIKYANASGENVKVARQAVLDRYQEIADAYHVSDSDFEQINVHLIDLANLHHANKACRLAHFKAAGERLNAILMALVLKKFNVTARFVDPKQLGIKAHGDYNNAILDQHSYAQIEAVCSNLLDEAEYLVVPGFYAYNQNGEVCTFSRGGSDITGAILARGFQAQLYENFTDVDSIYSADPKIIAQPHPIREMTYREMRELAYAGFSVFHDEAIIPAIEAQVPIVIKNTDHPNLPGTVIEPEQNYASDLEITGVASSSRFAALYIHKYLLNREVGFTLKLLKILYRYDISYEHMPSGIDDLTIIFNQNQITDEILPSLLSDIREELHTDQLEWIDDYAILMVVGEGMRDKVGVVDRIVNALARKQIGIQMINQGASRISTMLGVHQNQVNQAVREIYREFFKNKGRAD”, which “soluble on expression in E. coli” value is on record?
**A.** not soluble

**Q.** For “MGSDKIHHHHHHMVKYSGVCILFGAGGGGENALSLLKLEGCNISAIVDNDLKKHNTFLDDTPIYAPEKLNCDLIFDKILIASGYSKSILAQLGQYNISQERIIVLPQYYLKPNRFSDQVLYSLAWDFIFSFSELMNKLNIRYWLDYGTLLGLVRDNDLISWDSDLDFCILDENKGYLINSFSVISEHISSTIGCDVKIELIKGAECEHSRVFISCNRDNVILDIDVFIKFNFSNFVCLEVMDRVERYNAEHYVAVDFLNVKGISLPVPNKYDQYLTRVYGSWCVANKEWTLYS”, which “soluble on expression in E. coli” value is on record?
**A.** not soluble
